These results are taken from the supplement of paper PMC9112550, “Optimization of the antimicrobial peptide Bac7 by deep mutational scanning” (BMC Biology, 2022).

The series has as its system Escherichia coli TOP10. As to the kind of experiment: shrunken log2 fold change of peptide-encoding DNA abundance (4.5 h post-induction vs induction); higher = less antimicrobial activity (less host growth inhibition). Particulars: time post-induction: 4.5 h; library: site-saturation at positions 5, 18, 19, 20.
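Further: peptides expressed intracellularly from a pBAD plasmid library in pooled LB shake-flask culture, induced with 0.3% L-arabinose, DNA abundance read by NGS, three biological replicates, DESeq2 with apeglm shrinkage.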

On to RRIRLRPPRLPRPRPRPGPTPRP, for which the “shrunken log2 fold change” value was determined as 0.109.

Regarding RRIRKRPPRLPRPRPRPHLLPRP, the “shrunken log2 fold change” value was 0.00821.

As for RRIRARPPRLPRPRPRPTNIPRP, the “shrunken log2 fold change” value was -0.354.

Regarding RRIRARPPRLPRPRPRPNNTPRP, the “shrunken log2 fold change” value was -0.423.

As to RRIRQRPPRLPRPRPRPPMCPRP, the “shrunken log2 fold change” value is -0.213.

For the sequence RRIRPRPPRLPRPRPRPTGDPRP, the “shrunken log2 fold change” value was 0.649.

As to RRIRTRPPRLPRPRPRPIDSPRP, the “shrunken log2 fold change” value was -0.162.

In the case of RRIRDRPPRLPRPRPRPMQPPRP, the “shrunken log2 fold change” value is 0.0977.

For the sequence RRIRMRPPRLPRPRPRPWEHPRP, the “shrunken log2 fold change” value amounted to 0.0244.

Take RRIRCRPPRLPRPRPRPYKNPRP: the “shrunken log2 fold change” value is -0.984.

In the case of RRIRERPPRLPRPRPRPYPEPRP, the “shrunken log2 fold change” value was -0.918.

RRIRSRPPRLPRPRPRPWPIPRP: the “shrunken log2 fold change” value is 0.0295.

On to RRIRCRPPRLPRPRPRPSPSPRP, for which the “shrunken log2 fold change” value came out at 0.128.

Turning to RRIRRRPPRLPRPRPRPRGKPRP, the “shrunken log2 fold change” value is 0.694.

For RRIRQRPPRLPRPRPRPEMYPRP, the “shrunken log2 fold change” value was -0.173.

Consider RRIRPRPPRLPRPRPRPMRGPRP, for which the “shrunken log2 fold change” value worked out at 0.887.

Regarding RRIRFRPPRLPRPRPRPNMIPRP, the “shrunken log2 fold change” value was -0.495.

For RRIRYRPPRLPRPRPRPMPPPRP, the “shrunken log2 fold change” value was -0.331.

As to RRIRTRPPRLPRPRPRPARQPRP, the “shrunken log2 fold change” value worked out at 0.263.

As for RRIRNRPPRLPRPRPRPKVIPRP, the “shrunken log2 fold change” value was -0.264.

Consider RRIRKRPPRLPRPRPRPVKWPRP, for which the “shrunken log2 fold change” value amounted to 0.122.

As to RRIRWRPPRLPRPRPRPRSDPRP, the “shrunken log2 fold change” value was 0.618.

Take RRIRWRPPRLPRPRPRPRKLPRP: the “shrunken log2 fold change” value was 0.133.

Take RRIRSRPPRLPRPRPRPWSQPRP: the “shrunken log2 fold change” value is -0.00693.

For RRIRIRPPRLPRPRPRPCNVPRP, the “shrunken log2 fold change” value is -0.449.

On to RRIRQRPPRLPRPRPRPNNPPRP, for which the “shrunken log2 fold change” value was -0.282.

In the case of RRIRSRPPRLPRPRPRPNQDPRP, the “shrunken log2 fold change” value was -0.3.

With RRIRKRPPRLPRPRPRPDVKPRP, the “shrunken log2 fold change” value is -0.0302.

As to RRIRARPPRLPRPRPRPFGNPRP, the “shrunken log2 fold change” value is -0.148.

As for RRIRHRPPRLPRPRPRPSGNPRP, the “shrunken log2 fold change” value was -0.199.

As to RRIRERPPRLPRPRPRPEFIPRP, the “shrunken log2 fold change” value was -0.335.

Turning to RRIRKRPPRLPRPRPRPWKGPRP, the “shrunken log2 fold change” value worked out at 0.0195.

For the sequence RRIRRRPPRLPRPRPRPTFFPRP, the “shrunken log2 fold change” value stood at 0.722.

With RRIRPRPPRLPRPRPRPCQTPRP, the “shrunken log2 fold change” value is 0.0185.

Take RRIRCRPPRLPRPRPRPMEVPRP: the “shrunken log2 fold change” value was found to be 0.015.

Turning to RRIRLRPPRLPRPRPRPLVNPRP, the “shrunken log2 fold change” value was -0.346.

In the case of RRIRTRPPRLPRPRPRPDIHPRP, the “shrunken log2 fold change” value was -0.357.

For RRIRWRPPRLPRPRPRPKFLPRP, the “shrunken log2 fold change” value was -0.0144.

For the sequence RRIRYRPPRLPRPRPRPMCKPRP, the “shrunken log2 fold change” value was -0.368.

For the sequence RRIRRRPPRLPRPRPRPGRQPRP, the “shrunken log2 fold change” value came to 0.541.

As for RRIRKRPPRLPRPRPRPILHPRP, the “shrunken log2 fold change” value was -0.394.

Take RRIRQRPPRLPRPRPRPEYFPRP: the “shrunken log2 fold change” value is -0.0285.

Consider RRIRYRPPRLPRPRPRPEQPPRP, for which the “shrunken log2 fold change” value came to 0.00487.

Take RRIRCRPPRLPRPRPRPHDNPRP: the “shrunken log2 fold change” value was -0.356.

On to RRIRNRPPRLPRPRPRPNPRPRP, for which the “shrunken log2 fold change” value was 0.286.

With RRIRDRPPRLPRPRPRPFVHPRP, the “shrunken log2 fold change” value was -0.0617.

Turning to RRIRVRPPRLPRPRPRPDPNPRP, the “shrunken log2 fold change” value was -0.231.

With RRIRMRPPRLPRPRPRPTCRPRP, the “shrunken log2 fold change” value is 0.32.

As to RRIRHRPPRLPRPRPRPMGMPRP, the “shrunken log2 fold change” value was -0.254.

Consider RRIRTRPPRLPRPRPRPRTRPRP, for which the “shrunken log2 fold change” value came to 0.204.

On to RRIRVRPPRLPRPRPRPTRCPRP, for which the “shrunken log2 fold change” value was 0.404.

RRIRDRPPRLPRPRPRPQKMPRP: the “shrunken log2 fold change” value is -0.0885.

On to RRIRKRPPRLPRPRPRPFECPRP, for which the “shrunken log2 fold change” value is -0.0669.

As for RRIRVRPPRLPRPRPRPAWCPRP, the “shrunken log2 fold change” value amounted to 0.211.

With RRIRMRPPRLPRPRPRPGHLPRP, the “shrunken log2 fold change” value amounted to 0.0373.

RRIRPRPPRLPRPRPRPPHQPRP: the “shrunken log2 fold change” value stood at 0.146.

RRIRTRPPRLPRPRPRPIKYPRP: the “shrunken log2 fold change” value turned out to be 4.24.

On to RRIRRRPPRLPRPRPRPPFAPRP, for which the “shrunken log2 fold change” value is 0.739.

With RRIRWRPPRLPRPRPRPYPRPRP, the “shrunken log2 fold change” value was -0.632.

On to RRIRLRPPRLPRPRPRPEISPRP, for which the “shrunken log2 fold change” value was 0.099.

For the sequence RRIRFRPPRLPRPRPRPMHAPRP, the “shrunken log2 fold change” value was 0.0753.

Take RRIRVRPPRLPRPRPRPHCCPRP: the “shrunken log2 fold change” value is -0.147.

For RRIRIRPPRLPRPRPRPTMVPRP, the “shrunken log2 fold change” value is -0.719.

RRIRRRPPRLPRPRPRPMNIPRP: the “shrunken log2 fold change” value was -0.267.

RRIRNRPPRLPRPRPRPCWVPRP: the “shrunken log2 fold change” value is -0.0518.

Consider RRIRYRPPRLPRPRPRPSHMPRP, for which the “shrunken log2 fold change” value is -0.0573.

RRIRDRPPRLPRPRPRPDYCPRP: the “shrunken log2 fold change” value is -0.045.

In the case of RRIRRRPPRLPRPRPRPNRDPRP, the “shrunken log2 fold change” value is -0.062.

Take RRIRIRPPRLPRPRPRPRPMPRP: the “shrunken log2 fold change” value amounted to 0.129.

For the sequence RRIRDRPPRLPRPRPRPGFSPRP, the “shrunken log2 fold change” value was found to be 0.0888.

In the case of RRIRRRPPRLPRPRPRPNNFPRP, the “shrunken log2 fold change” value is -0.00104.

RRIRIRPPRLPRPRPRPIHRPRP: the “shrunken log2 fold change” value was -0.197.

For RRIRPRPPRLPRPRPRPHNEPRP, the “shrunken log2 fold change” value is -0.397.

Turning to RRIRYRPPRLPRPRPRPKQHPRP, the “shrunken log2 fold change” value was -0.304.

For the sequence RRIRVRPPRLPRPRPRPANMPRP, the “shrunken log2 fold change” value came to 0.00908.

RRIRCRPPRLPRPRPRPTDHPRP: the “shrunken log2 fold change” value is -0.257.

Regarding RRIRERPPRLPRPRPRPMHTPRP, the “shrunken log2 fold change” value is 0.102.

Regarding RRIRRRPPRLPRPRPRPYQSPRP, the “shrunken log2 fold change” value is -0.145.

Consider RRIRHRPPRLPRPRPRPAVYPRP, for which the “shrunken log2 fold change” value was -0.0534.

On to RRIRLRPPRLPRPRPRPPKQPRP, for which the “shrunken log2 fold change” value was 0.0446.

On to RRIRHRPPRLPRPRPRPHWCPRP, for which the “shrunken log2 fold change” value was -0.0566.

As to RRIRPRPPRLPRPRPRPVKMPRP, the “shrunken log2 fold change” value came out at 0.137.

For RRIRHRPPRLPRPRPRPELWPRP, the “shrunken log2 fold change” value was 0.376.

RRIRNRPPRLPRPRPRPLWYPRP: the “shrunken log2 fold change” value was -0.619.

For RRIRIRPPRLPRPRPRPEAWPRP, the “shrunken log2 fold change” value is 0.033.

Consider RRIRERPPRLPRPRPRPDNHPRP, for which the “shrunken log2 fold change” value is -0.802.

Take RRIRNRPPRLPRPRPRPTHWPRP: the “shrunken log2 fold change” value came out at 0.661.

With RRIRFRPPRLPRPRPRPHHDPRP, the “shrunken log2 fold change” value is -0.379.

As for RRIRFRPPRLPRPRPRPCACPRP, the “shrunken log2 fold change” value was -0.0607.

In the case of RRIRFRPPRLPRPRPRPEGNPRP, the “shrunken log2 fold change” value was -0.0429.

On to RRIRCRPPRLPRPRPRPSIEPRP, for which the “shrunken log2 fold change” value was -0.123.
